Source: patent CN116284426A (SUNSHINE GUOJIAN PHARMACEUTICAL SHANGHAI CO LTD, dated 2023)

Columns and labels:
[1] = target: T1, GUCY2C on tumour cells (CW2, CW2-GCC#1, T84) (human, UniProt P25092 24-1073); assay: cell-based or functional assay
CD3ε-ECD-his [2] = target: T2, CD3ε-ECD-his (UniProt P07766 23-126); assay: ELISA, CD3ε-ECD-his coated at 1 ug/mL, anti-human IgG Fab HRP (Table 14)
T2 construct: extracellular domain; also called CD3ε蛋白

[3] = target: T3, GUCY2C-Fc蛋白 (human GUCY2C extracellular region fused to human IgG1 Fc) (human, UniProt P25092 24-430); assay: ELISA, GUCY2C-Fc coated, anti-human IgG Fab HRP (Table 11)
T3 construct: extracellular domain; Made in HEK-293F with an unspecified N-terminal signal peptide; also called 人GUCY2C-Fc蛋白; not shown: human IgG1 Fc at the C-terminus in place of the 6xHis tag
T3 sequence (P25092 24-430 limits assumed): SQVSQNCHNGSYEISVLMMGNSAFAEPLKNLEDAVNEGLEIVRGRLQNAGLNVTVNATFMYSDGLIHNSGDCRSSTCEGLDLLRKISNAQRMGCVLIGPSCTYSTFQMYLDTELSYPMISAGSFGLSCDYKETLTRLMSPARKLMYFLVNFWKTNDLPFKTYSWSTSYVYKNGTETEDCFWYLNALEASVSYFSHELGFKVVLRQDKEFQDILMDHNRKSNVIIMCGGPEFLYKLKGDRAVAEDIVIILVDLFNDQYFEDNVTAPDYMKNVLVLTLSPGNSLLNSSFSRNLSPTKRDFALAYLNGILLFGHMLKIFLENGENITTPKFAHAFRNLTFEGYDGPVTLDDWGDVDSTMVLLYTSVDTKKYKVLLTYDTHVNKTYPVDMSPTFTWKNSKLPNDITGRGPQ

[4] = target: T4, GUCY2C-His蛋白 (human GUCY2C extracellular region with C-terminal 6xHis) (human, UniProt P25092 24-430); assay: ELISA, GUCY2C-His coated, anti-human IgG Fab HRP (Table 10)
T4 construct: extracellular domain; Made in HEK-293F with an unspecified N-terminal signal peptide; also called 人GUCY2C-His蛋白
T4 sequence (P25092 other isoform, or with tags, fused parts or gaps): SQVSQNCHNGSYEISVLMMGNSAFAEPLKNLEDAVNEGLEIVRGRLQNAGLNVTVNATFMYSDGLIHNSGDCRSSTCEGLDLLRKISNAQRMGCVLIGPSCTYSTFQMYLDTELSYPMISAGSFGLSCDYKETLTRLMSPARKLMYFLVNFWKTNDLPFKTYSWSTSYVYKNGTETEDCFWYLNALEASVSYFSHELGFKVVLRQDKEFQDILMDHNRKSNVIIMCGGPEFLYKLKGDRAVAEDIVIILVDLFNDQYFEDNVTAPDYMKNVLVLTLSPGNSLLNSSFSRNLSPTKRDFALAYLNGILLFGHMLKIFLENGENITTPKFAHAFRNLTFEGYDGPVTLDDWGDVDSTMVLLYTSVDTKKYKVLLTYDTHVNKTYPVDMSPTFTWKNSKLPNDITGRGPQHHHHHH

[5] = target: T4, GUCY2C-His蛋白 (human GUCY2C …); assay: ELISA, GUCY2C-His coated, anti-human IgG Fab HRP (Table 9)
[6] = target: T3, GUCY2C-Fc蛋白 (human GUCY2C extracellular …); assay: ELISA, GUCY2C-Fc coated, anti-human IgG Fab HRP (Table 12)
[7] = target: T4, GUCY2C-His蛋白 (human GUCY2C …); assay: ELISA, GUCY2C-His coated, anti-human IgG Fc HRP
CD3ε-ECD-his [8] = target: T2, CD3ε-ECD-his; assay: ELISA, CD3ε-ECD-his coated; reference SP34
[9] = target: T1, GUCY2C on tumour cells (CW2, CW2-GCC#1, …); assay: cell-based or functional assay; remark: listed apart in the source
CD3ε-ECD-his [10] = target: T2, CD3ε-ECD-his; assay: ELISA, CD3ε-ECD-his coated at 1 ug/mL (Table 19)
[11] = target: T3, GUCY2C-Fc蛋白 (human GUCY2C extracellular …); assay: ELISA, GUCY2C-Fc coated, anti-human IgG Fab HRP (Table 18)
[12] = target: T4, GUCY2C-His蛋白 (human GUCY2C …); assay: ELISA, GUCY2C-His coated, anti-human IgG Fab HRP (Table 17)

T1 sequence (P25092 24-1073): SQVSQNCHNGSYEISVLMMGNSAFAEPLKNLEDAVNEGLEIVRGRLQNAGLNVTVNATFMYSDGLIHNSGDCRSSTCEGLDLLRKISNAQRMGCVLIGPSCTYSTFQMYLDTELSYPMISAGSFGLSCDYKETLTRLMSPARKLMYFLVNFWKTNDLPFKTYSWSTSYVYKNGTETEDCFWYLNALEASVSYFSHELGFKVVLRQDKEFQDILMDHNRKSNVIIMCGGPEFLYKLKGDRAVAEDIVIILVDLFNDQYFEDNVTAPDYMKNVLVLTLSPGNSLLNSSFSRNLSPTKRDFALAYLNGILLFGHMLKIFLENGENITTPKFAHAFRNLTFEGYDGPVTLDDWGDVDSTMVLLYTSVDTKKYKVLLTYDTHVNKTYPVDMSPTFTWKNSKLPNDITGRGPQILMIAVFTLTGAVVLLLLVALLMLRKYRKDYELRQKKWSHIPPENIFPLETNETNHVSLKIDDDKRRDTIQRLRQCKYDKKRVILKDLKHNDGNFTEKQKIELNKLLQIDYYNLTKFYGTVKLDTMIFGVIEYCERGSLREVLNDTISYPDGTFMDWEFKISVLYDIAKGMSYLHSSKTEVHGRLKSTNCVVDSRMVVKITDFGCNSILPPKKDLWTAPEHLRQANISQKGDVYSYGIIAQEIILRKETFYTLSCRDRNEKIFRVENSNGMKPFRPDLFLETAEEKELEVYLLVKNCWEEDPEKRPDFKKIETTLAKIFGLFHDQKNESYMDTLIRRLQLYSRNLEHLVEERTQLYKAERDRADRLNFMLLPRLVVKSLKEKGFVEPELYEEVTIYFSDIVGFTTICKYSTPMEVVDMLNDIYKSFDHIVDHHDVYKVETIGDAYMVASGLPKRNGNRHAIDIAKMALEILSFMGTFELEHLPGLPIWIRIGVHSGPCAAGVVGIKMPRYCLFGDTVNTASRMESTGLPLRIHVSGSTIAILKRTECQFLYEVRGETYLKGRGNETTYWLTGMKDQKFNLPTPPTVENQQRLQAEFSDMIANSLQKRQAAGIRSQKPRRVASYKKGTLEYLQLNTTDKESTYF
T2 sequence (P07766 other isoform, or with tags, fused parts or gaps): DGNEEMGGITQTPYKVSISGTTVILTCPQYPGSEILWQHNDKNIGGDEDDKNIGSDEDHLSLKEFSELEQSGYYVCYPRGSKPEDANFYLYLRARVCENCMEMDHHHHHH

Binder | EC50 (CD3ε-ECD-his [2]) [nM] | EC50 [3] [nM] | EC50 [4] [nM] | EC50 [5] [nM] | EC50 [6] [nM] | EC50 [7] [nM] | fold weaker affinity than SP34 (CD3ε-ECD-his [8]) [fold] | EC50 (CD3ε-ECD-his [10]) [nM] | EC50 [11] [nM] | EC50 [12] [nM] | IC50 of T-cell-mediated killing of CW2 cells (CTG, E:T 5:1, 96 h) [1] [nM] | IC50 of T-cell-mediated killing of T84 cells [9] [nM]
32H2-SP4VHL-L (bispecific antibody, human IgG1, kappa, also called 结构19) heavy: not shown light: DVVMTQSPLSLPVTLGQPASISCRSSQSLVYNNGNTYLHWYQQRPGQSPRLLIYKVSNRFSGVPDRFSGSGSGTDFTLKISRVEAEDVGVYFCSQSTHVPLTFGQGTKVEIKRTVAAPSVFIFPPSDEQLKSGTASVVCLLNNFYPREAKVQWKVDNALQSGNSQESVTEQDSKDSTYSLSSTLTLSKADYEKHKVYACEVTHQGLSSPVTKSFNRGECGGGGSGGGGSGGGGSEVQLVESGGGLVQPGGSLRLSCAASGFTFNTYAMNWVRQAPGKGLEWVARIRSKYNNYATYYADSVKDRFTISRDDSKNTLYLQMNSLRAEDTAVYYCVRHGNFGNSYVSWFAYWGQGTLVTVSSGGGGSGGGGSGGGGSGGGGSQAVVTQEPSLTVSPGGTVTLTCRSSTGAVTTSNYANWVQQKPGQAPRGLIGGTNKRAPGVPARFSGSLLGGKAALTLSGAQPEDEAEYYCALWYSNLWVFGQGTKVEIK | 1.09 | 0.38 | 0.49 | 0.49 | 0.43 |  |  |  |  |  | 0.08 | 
10D7-ch (antibody, V domains shown) VH: QVQLKQSGPGLVQPSQSLSITCTVSGFSLTNYGVHWVRQSPGKGLEWLGVIWSGGRKDYNAAFISRLNITKDNSKSQVFFTMNSLHSDDTAIYYCARHGTYPYWYFALWGAGTSVTISS VL: DIQMTQTTSSLSASLGDRVTISCRASQDISNYLNWYQQKPDGTFKLLVYYTSRLQSGVPSRFSGSGSGTLYSLTISTLEQEDVATYFCQQGKTLPFSFGGGTRLEIKR |  |  |  |  |  | 0.113 |  |  |  |  |  | 
32H2-ch (antibody, V domains shown) VH: EVMLVESGGDLVKPGGSLKLSCAASGFSFRTYAMSWVRQSPEKSLEWVATISSGSSYIYYPDSVKGRFTVFRDNAKNTLYLQMSSLRSEDSAIYYCTCYRMETFEYWGQGTTLTVSS VL: DVVMTQTPLSLPVSLGDEASISCRSSQSLVYNNGNTYLHWYLQKPGQSPKLLIYKVSNRFSGVPDRFSGSGSGTDFTLKISRVEAEDLGVYFCSQSTHVPLTFGAGTKLELKR |  |  |  |  |  | 0.141 |  |  |  |  |  | 
32H2CH1-SP4VHL-hik (bispecific antibody, human IgG1, kappa, also called 结构8) heavy 1: EVQLVESGGGLVKPGGSLRLSCAASGFSFRTYAMSWVRQAPGKSLEWVATISSGSSYIYYPDSVKGRFTVSRDNAKNSLYLQMNSLRAEDTAVYYCTCYRMETFEYWGQGTLVTVSSASTKGPSVFPLAPSSKSTSGGTAALGCLVKDYFPEPVTVSWNSGALTSGVHTFPAVLQSSGLYSLSSVVTVPSSSLGTQTYICNVNHKPSNTKVDKKVEPKSCGGGGSGGGGSGGGGSEVQLVESGGGLVQPGGSLRLSCAASGFTFNTYAMNWVRQAPGKGLEWVARIRSKYNNYATYYADSVKDRFTISRDDSKNTLYLQMNSLRAEDTAVYYCVRHGNFGNSYVSWFAYWGQGTLVTVSSGGGGSGGGGSGGGGSGGGGSQAVVTQEPSLTVSPGGTVTLTCRSSTGAVTTSNYANWVQQKPGQAPRGLIGGTNKRAPGVPARFSGSLLGGKAALTLSGAQPEDEAEYYCALWYSNLWVFGQGTKVEIKGGGSDKTHTCPPCPAPELLGGPSVFLFPPKPKDTLMISRTPEVTCVVVDVSHEDPEVKFNWYVDGVEVHNAKTKPREEQYNSTYRVVSVLTVLHQDWLNGKEYKCKVSNKALPAPIEKTISKAKGQPREPQVYTLPPCREEMTKNQVSLSCAVKGFYPSDIAVEWESNGQPENNYKTTPPVLDSDGSFFLVSKLTVDKSRWQQGNVFSCSVMHEALHNHYTQKSLSLSPGK heavy 2: not shown light: DVVMTQSPLSLPVTLGQPASISCRSSQSLVYNNGNTYLHWYQQRPGQSPRLLIYKVSNRFSGVPDRFSGSGSGTDFTLKISRVEAEDVGVYFCSQSTHVPLTFGQGTKVEIKRTVAAPSVFIFPPSDEQLKSGTASVVCLLNNFYPREAKVQWKVDNALQSGNSQESVTEQDSKDSTYSLSSTLTLSKADYEKHKVYACEVTHQGLSSPVTKSFNRGEC |  |  |  |  |  |  | ~10 | 1.92 | 0.869 | 0.428 |  | 0.002
32H2CH1-SP4VHL (bispecific antibody, also called 结构7) heavy: not shown light: DVVMTQSPLSLPVTLGQPASISCRSSQSLVYNNGNTYLHWYQQRPGQSPRLLIYKVSNRFSGVPDRFSGSGSGTDFTLKISRVEAEDVGVYFCSQSTHVPLTFGQGTKVEIKRTVAAPSVFIFPPSDEQLKSGTASVVCLLNNFYPREAKVQWKVDNALQSGNSQESVTEQDSKDSTYSLSSTLTLSKADYEKHKVYACEVTHQGLSSPVTKSFNRGEC | 0.37 | 0.24 | 0.23 | 0.29 | 0.33 |  | ~2 | 0.309 | 0.521 | 0.188 | 0.05 | 

Now from value to binder, other results behind:

EC50 (CD3ε-ECD-his [2]) [nM] | EC50 [3] [nM] | EC50 [4] [nM] | EC50 [5] [nM] | EC50 [6] [nM] | EC50 [7] [nM] | fold weaker affinity than SP34 (CD3ε-ECD-his [8]) [fold] | EC50 (CD3ε-ECD-his [10]) [nM] | EC50 [11] [nM] | EC50 [12] [nM] | Binder | IC50 of T-cell-mediated killing of CW2 cells (CTG, E:T 5:1, 96 h) [1] [nM] | IC50 of T-cell-mediated killing of T84 cells [9] [nM]
0.59 | 1 | 2.09 | 1.86 | 1.19 |  | ~5 | 0.792 | 2.83 | 1.84 | SP4VHL-32H2 (bispecific antibody, human IgG1, kappa, The anti-CD3 scFv (VH-L-VL of humanized SP34) sits at the N-terminus of the heavy chain; also called 结构2) heavy: not shown light: DVVMTQSPLSLPVTLGQPASISCRSSQSLVYNNGNTYLHWYQQRPGQSPRLLIYKVSNRFSGVPDRFSGSGSGTDFTLKISRVEAEDVGVYFCSQSTHVPLTFGQGTKVEIKRTVAAPSVFIFPPSDEQLKSGTASVVCLLNNFYPREAKVQWKVDNALQSGNSQESVTEQDSKDSTYSLSSTLTLSKADYEKHKVYACEVTHQGLSSPVTKSFNRGEC | 0.46 | 0.004
6.12 | 5.08 | 30.1 | 35.5 | 1.04 |  |  |  |  |  | 32H2Fab-SP4VHL (bispecific antibody, also called 32H2Fab-SPVHL; 结构10) heavy: EVQLVESGGGLVKPGGSLRLSCAASGFSFRTYAMSWVRQAPGKSLEWVATISSGSSYIYYPDSVKGRFTVSRDNAKNSLYLQMNSLRAEDTAVYYCTCYRMETFEYWGQGTLVTVSSASTKGPSVFPLAPSSKSTSGGTAALGCLVKDYFPEPVTVSWNSGALTSGVHTFPAVLQSSGLYSLSSVVTVPSSSLGTQTYICNVNHKPSNTKVDKKVEPKSCGGGGSGGGGSGGGGSEVQLVESGGGLVQPGGSLRLSCAASGFTFNTYAMNWVRQAPGKGLEWVARIRSKYNNYATYYADSVKDRFTISRDDSKNTLYLQMNSLRAEDTAVYYCVRHGNFGNSYVSWFAYWGQGTLVTVSSGGGGSGGGGSGGGGSGGGGSQAVVTQEPSLTVSPGGTVTLTCRSSTGAVTTSNYANWVQQKPGQAPRGLIGGTNKRAPGVPARFSGSLLGGKAALTLSGAQPEDEAEYYCALWYSNLWVFGQGTKVEIK light: DVVMTQSPLSLPVTLGQPASISCRSSQSLVYNNGNTYLHWYQQRPGQSPRLLIYKVSNRFSGVPDRFSGSGSGTDFTLKISRVEAEDVGVYFCSQSTHVPLTFGQGTKVEIKRTVAAPSVFIFPPSDEQLKSGTASVVCLLNNFYPREAKVQWKVDNALQSGNSQESVTEQDSKDSTYSLSSTLTLSKADYEKHKVYACEVTHQGLSSPVTKSFNRGEC | 51 | 1.25
 |  |  |  |  |  | ~10 | 1.31 | 0.681 | 0.264 | 32H2CH1-SP4VHL-KIH (bispecific antibody, human IgG1, kappa, also called 结构9) heavy 1: not shown heavy 2: EVQLVESGGGLVKPGGSLRLSCAASGFSFRTYAMSWVRQAPGKSLEWVATISSGSSYIYYPDSVKGRFTVSRDNAKNSLYLQMNSLRAEDTAVYYCTCYRMETFEYWGQGTLVTVSSASTKGPSVFPLAPSSKSTSGGTAALGCLVKDYFPEPVTVSWNSGALTSGVHTFPAVLQSSGLYSLSSVVTVPSSSLGTQTYICNVNHKPSNTKVDKKVEPKSCDKTHTCPPCPAPELLGGPSVFLFPPKPKDTLMISRTPEVTCVVVDVSHEDPEVKFNWYVDGVEVHNAKTKPREEQYNSTYRVVSVLTVLHQDWLNGKEYKCKVSNKALPAPIEKTISKAKGQPREPQVYTLPPCREEMTKNQVSLSCAVKGFYPSDIAVEWESNGQPENNYKTTPPVLDSDGSFFLVSKLTVDKSRWQQGNVFSCSVMHEALHNHYTQKSLSLSPGK light: DVVMTQSPLSLPVTLGQPASISCRSSQSLVYNNGNTYLHWYQQRPGQSPRLLIYKVSNRFSGVPDRFSGSGSGTDFTLKISRVEAEDVGVYFCSQSTHVPLTFGQGTKVEIKRTVAAPSVFIFPPSDEQLKSGTASVVCLLNNFYPREAKVQWKVDNALQSGNSQESVTEQDSKDSTYSLSSTLTLSKADYEKHKVYACEVTHQGLSSPVTKSFNRGEC |  | 0.366
 |  |  |  |  | 5.19 |  |  |  |  | 43D11-ch (antibody, V domains shown) VH: DVKLVESGGVLVKLGGSLKLSCAASGFTFSGYFMSWVRQTPEKRLELVAAINSDGGSTYYPDTVKGRFTISRDNAKNTLYLQMSSLKSEDTALYYCARLARYLYAMDYWGQGTSVTVSS VL: QIVLTQSPAIMSASPGEKVTMTCSASSSVSYMYWYQQKPGSSPRLLIYDTSNLASGVPVRFSGSGSGTSYSLTISRMEAEDAATYYCQQWTSSSWTFGGGTKLEIKR |  | 
